Reference: patent US20210395725A1

Key:
[1] = target: wild-type human CD9 LEL (human) (UniProt P21926); assay: yeast display flow cytometry; MEM-61 10 µg/ml + goat anti-mouse (Fab′)2-Alexa Fluor 555; induction at 37 °C; secondary only 4.21
[2] = target: wild-type human CD9 LEL (human) (UniProt P21926); assay: yeast display flow cytometry; MEM-61 10 µg/ml + goat anti-mouse (Fab′)2-Alexa Fluor 555; induction at 20 °C; secondary only 1.14
[3] = target: hCD81 LEL mutant C4C9 (Ala134Cys/Lys144Cys and Val135Cys/Ser168Cys) (human) (UniProt P60033); assay: ELISA; M38 coated at 5 µg/mL, CD81 LEL variant at 0.002286 µg/ml, anti-his-HRP
Chain of hCD81 LEL mutant C4C9 (Ala134Cys/Lys144Cys and Val135Cys/Ser168Cys) (human) (P60033 114-202 A134C/V135C/K144C/S168C): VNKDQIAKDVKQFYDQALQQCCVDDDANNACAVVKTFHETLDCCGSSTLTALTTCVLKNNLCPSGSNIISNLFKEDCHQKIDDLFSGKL

[4] = target: wild-type human CD81 LEL (human) (UniProt P60033); assay: as above
Chain of wild-type human CD81 LEL (human) (P60033 113-201 limits assumed): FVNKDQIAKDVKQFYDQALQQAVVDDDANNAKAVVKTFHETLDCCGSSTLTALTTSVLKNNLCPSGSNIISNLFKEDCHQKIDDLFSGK

[5] = target: hCD81 LEL mutant C4C9 (Ala134Cys/Lys144Cys and Val135Cys/Ser168Cys) (human) (UniProt P60033); assay: ELISA; M38 coated at 5 µg/mL, CD81 LEL variant at 1.666667 µg/ml, anti-his-HRP
[6] = target: wild-type human CD81 LEL (human) (UniProt P60033); assay: as above
[7] = target: wild-type human CD81 LEL (human) (UniProt P60033); assay: HEK293-6E cell display flow cytometry; M38 10 µg/ml + anti-mouse F(ab)2-Alexa Fluor 555; secondary only 8.52
[8] = target: hCD81 LEL mutant C4C9 (Ala134Cys/Lys144Cys and Val135Cys/Ser168Cys) (human) (UniProt P60033); assay: ELISA; M38 coated at 5 µg/mL, CD81 LEL variant at 0.020576 µg/ml, anti-his-HRP
[9] = target: wild-type human CD81 LEL (human) (UniProt P60033); assay: as above
[10] = target: hCD81 LEL mutant C4C9 (Ala134Cys/Lys144Cys and Val135Cys/Ser168Cys) (human) (UniProt P60033); assay: ELISA; M38 coated at 5 µg/mL, CD81 LEL variant at 0.185185 µg/ml, anti-his-HRP
[11] = target: wild-type human CD81 LEL (human) (UniProt P60033); assay: as above
[12] = target: hCD81 LEL mutant C4C9 (Ala134Cys/Lys144Cys and Val135Cys/Ser168Cys) (human) (UniProt P60033); assay: ELISA; M38 coated at 5 µg/mL, CD81 LEL variant at 0.006859 µg/ml, anti-his-HRP
[13] = target: wild-type human CD81 LEL (human) (UniProt P60033); assay: as above
[14] = target: hCD81 LEL mutant C4C9 (Ala134Cys/Lys144Cys and Val135Cys/Ser168Cys) (human) (UniProt P60033); assay: ELISA; M38 coated at 5 µg/mL, CD81 LEL variant at 0.555556 µg/ml, anti-his-HRP
[15] = target: wild-type human CD81 LEL (human) (UniProt P60033); assay: as above
[16] = target: hCD81 LEL mutant C4C9 (Ala134Cys/Lys144Cys and Val135Cys/Ser168Cys) (human) (UniProt P60033); assay: ELISA; M38 coated at 5 µg/mL, CD81 LEL variant at 0.061728 µg/ml, anti-his-HRP
[17] = target: wild-type human CD81 LEL (human) (UniProt P60033); assay: as above
[18] = target: hCD81 LEL mutant C4C9 (Ala134Cys/Lys144Cys and Val135Cys/Ser168Cys) (human) (UniProt P60033); assay: ELISA; M38 coated at 5 µg/mL, CD81 LEL variant at 5 µg/ml, anti-his-HRP
[19] = target: wild-type human CD81 LEL (human) (UniProt P60033); assay: as above
[20] = target: streptavidin-Alexafluor 647 (UniProt P22629); assay: yeast display flow cytometry; secondary reagent only
Chain of streptavidin-Alexafluor 647 (P22629 37-163 limits assumed): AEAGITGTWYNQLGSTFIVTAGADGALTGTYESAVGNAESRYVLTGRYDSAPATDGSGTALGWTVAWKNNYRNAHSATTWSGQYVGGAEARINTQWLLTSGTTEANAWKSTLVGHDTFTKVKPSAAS

Chain of wild-type human CD9 LEL (human) (P21926 113-192 limits assumed): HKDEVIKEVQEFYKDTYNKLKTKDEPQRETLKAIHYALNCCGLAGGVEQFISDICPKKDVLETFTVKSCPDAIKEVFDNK

Substance: anti-CD9 specific antibody MEM-61
- percentage of positive yeast cells [1]: 26.2%
- percentage of positive yeast cells [2]: 46.4%

Substance: anti-hCD81 M38 antibody
- A 450/620 [3]: 0.187
- A 450/620 [4]: 0.177
- A 450/620 [5]: 3.82
- A 450/620 [6]: 3.69
- MFI [7]: 83.8
- A 450/620 [8]: 1.98
- A 450/620 [9]: 1.89
- A 450/620 [10]: 3.69
- A 450/620 [11]: 3.68
- A 450/620 [12]: 0.75
- A 450/620 [13]: 0.616
- A 450/620 [14]: 3.73
- A 450/620 [15]: 3.63
- A 450/620 [16]: 3.46
- A 450/620 [17]: 3.53
- A 450/620 [18]: 3.83
- A 450/620 [19]: 3.97

Substance: wild-type human CD81 LEL (from UniProt P60033 113-201)
- median fluorescence [20]: 28.3
